In PMC12173945, “Import mechanism of peroxisomal proteins with an N-terminal signal sequence” (Nature Cell Biology, 2025):

How the values were obtained:
yeast PEX7 [1] = test: Bead-binding assay: PEX5 variants, PEX7 and PTS2 cargo (Extended Data Fig. 2a,c, 6b); design: species or system yeast (S. cerevisiae); details: 1 µM PEX7–GFP
Excerpt: Cysteine-containing peptides were covalently conjugated to thiol-reactive SulfoLink coupling resin (Thermo Fisher, catalogue number 20401) according to the manufacturer’s instructions. The prepared beads were then mixed with Assay Buffer containing the fluorescently labelled protein as well as additional components indicated in the text, and the resulting bead suspensions were transferred to a 384-well glass-bottomed plate (Cellvis, P384-1.5H-N). GST-fusion proteins were instead mixed with glutathione agarose 4B (Prometheus, 20-543) in Assay Buffer containing the fluorescently labelled protein and additional components indicated in the text; the resulting bead suspensions were then transferred to a glass-bottomed plate as above. The plates were incubated at RT for the durations specified in the text and directly imaged on the spinning-disk confocal platform described earlier for peroxisomal import reactions in Xenopus egg extract. Note that imaging the beads directly in the binding reaction preserves the equilibrium and thereby allows even weak interactions to be detected. Fluorescence was collected through a Nikon ×10 0.45 NA Plan Apo air objective, and images were acquired using the Nikon NIS-Elements software and a 16-bit digitizer without binning. Imaging parameters were configured to maximize the SNR while avoiding saturation. […]

[2] = tested on: S. cerevisiae cells expressing RFP–FOX2 and POT1–GFP; test: Peroxisomal protein import assay in S. cerevisiae; format: cell-based; details: yeast expressing PTS1 and PTS2 matrix proteins
Procedure: Peroxisome biogenesis was induced in S. cerevisiae using an established procedure. Briefly, cells were subcultured twice in YPD medium to mid-log phase (optical density at 600 nm (OD600) ≈ 2), harvested through centrifugation at 2,000g and 30 °C for 10 min, sterilely resuspended to an OD600 of 0.5 in YPGO medium (1% wt/vol yeast extract, 2% wt/vol peptone, 2% vol/vol glycerol, 0.1% wt/vol oleic acid and 0.25% vol/vol Tween 40) and cultured for an additional 16 h at 30 °C. For experiments involving PEX7 riboswitch constructs, cultures in YPGO were supplemented with 250 µM tetracycline (Millipore Sigma, T7660) as described previously.
S. cerevisiae cells expressing RFP–FOX2 and POT1–GFP (MSB-462) were induced to form peroxisomes as described earlier. […]
The cells were imaged on a spinning-disk confocal platform consisting of a Nikon Eclipse Ti inverted microscope, a Yokagawa CSU-X1 spinning-disk confocal scanner, a Hamamatsu ORCA-Fusion BT sCMOS camera and a Prior Proscan II motorized stage. […] Fluorescence was collected using a red-emission ET605/52 m (605 ± 26 nm) or a green-emission ET525/50 m (525 ± 25 nm) single-band bandpass filter (Chroma), respectively, through either a Nikon ×100 1.45 numerical aperture (NA) Plan Apo Lambda or Nikon ×40 0.95 NA Plan Apo Lambda air objective. […]

[3] = tested on: PEX7–FLAG in peroxisome-containing membrane fraction; test: Cell fractionation and FLAG immunoprecipitation / immunoblot of PEX7–FLAG and PEX39–FLAG; format: cell-based, S. cerevisiae; details: PEX13 lacking the KPWE motif; yeast in oleic acid
Procedure: Samples in Laemmli buffer (50 mM Tris–HCl pH 6.8 at RT, 10% vol/vol glycerol, 2% wt/vol SDS, 0.01% bromophenol blue and 700 mM β-mercaptoethanol) were heated for 5 min at 95 °C and then electrophoretically resolved under denaturing conditions on 4–20% TGX precast polyacrylamide gels (Bio-Rad, catalogue number 5671095). For immunoblotting, samples were transferred from the gels to Immun-Blot PVDF membranes (Bio-Rad, catalogue number 13709A06) for 12 h at 25 V and RT in 25 mM Tris, 192 mM glycine and 10% vol/vol methanol. The membranes were blotted in 20 mM Tris–HCl pH 7.5 at RT, 150 mM NaCl, 0.01% vol/vol Tween 20 and 3% wt/vol fat-free milk solids (Apex, catalogue number 20241) using antibodies to the FLAG epitope (Sigma, F7425) and compatible horseradish peroxidase-conjugated secondary antibodies (Cytiva, NA934). The blots were developed by chemiluminescence (Perkin Elmer, NEL103001EA) and scanned on an Amersham ImageQuant 800 imaging system. For staining with Coomassie blue, gels were fixed in 50% vol/vol methanol and 10% vol/vol acetic acid for 30 min at RT, incubated for 30 min in 50% vol/vol methanol, 10% vol/vol acetic acid and 0.001% wt/vol Coomassie brilliant blue R-250 (Bio-Rad), and destained overnight in 10% vol/vol acetic acid before washing into water. The stained gels were digitized on an Epson Perfection V700 scanner using the Epson Scan 2 software. […]

[4] = biological target: T1, yeast PEX7 fused at the C terminus to GFP (PEX7–GFP) (yeast (S. cerevisiae), UniProt P39108 1-375); test: bead-binding assay (fluorescence on beads by spinning-disk confocal microscopy); GST-tagged protein on glutathione beads; GFP-fused partner in solution (1 µM each in Extended Data Fig. 9a); 1 h, RT; details: both partners purified
T1 construct: PEX7, yeast (S. cerevisiae); not shown: GST, N-terminal, cleaved; GFP, C-terminal, kept
T1 sequence (looked up): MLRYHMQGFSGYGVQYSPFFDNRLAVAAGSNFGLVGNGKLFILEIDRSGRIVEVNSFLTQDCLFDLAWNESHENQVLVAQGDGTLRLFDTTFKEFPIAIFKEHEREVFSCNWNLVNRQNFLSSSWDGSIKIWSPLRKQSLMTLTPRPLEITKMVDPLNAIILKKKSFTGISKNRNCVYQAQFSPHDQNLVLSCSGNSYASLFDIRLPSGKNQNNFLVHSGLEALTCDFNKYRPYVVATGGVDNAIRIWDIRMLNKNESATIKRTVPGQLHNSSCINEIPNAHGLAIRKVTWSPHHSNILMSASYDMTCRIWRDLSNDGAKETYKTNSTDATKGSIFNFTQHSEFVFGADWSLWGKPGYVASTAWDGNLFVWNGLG

yeast PEX7 [5] = biological target: T2, yeast PEX7 (yeast (S. cerevisiae), UniProt P39108 1-375); test: pull-down; quantitative: glutathione agarose with 1 µM yeast PEX7 and varying concentrations of GST-tagged PEX39 variants, Assay Buffer, 25 °C, 1 h; beads sedimented, PEX7 left in the supernatant quantified by SDS–PAGE and Coomassie; observed binding constants (Kobs); details: both partners purified
T2 construct: PEX7, yeast (S. cerevisiae); also called purified recombinant yeast PEX7; not shown: GST, N-terminal, cleaved
T2 sequence (looked up): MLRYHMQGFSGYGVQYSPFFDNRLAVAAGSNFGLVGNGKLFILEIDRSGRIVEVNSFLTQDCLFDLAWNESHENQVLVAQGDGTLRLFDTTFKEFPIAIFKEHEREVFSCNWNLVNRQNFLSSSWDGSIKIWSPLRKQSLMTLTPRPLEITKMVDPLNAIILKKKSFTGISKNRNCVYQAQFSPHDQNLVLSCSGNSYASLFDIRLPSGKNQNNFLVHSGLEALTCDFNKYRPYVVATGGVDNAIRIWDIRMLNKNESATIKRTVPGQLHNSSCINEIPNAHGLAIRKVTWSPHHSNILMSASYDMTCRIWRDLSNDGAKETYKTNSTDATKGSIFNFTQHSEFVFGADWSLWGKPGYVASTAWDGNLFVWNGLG

yeast PEX7 [6] = biological target: T2, yeast PEX7; test: pull-down; competition: glutathione beads with yeast PEX7 and GST-tagged PEX39 ∆APH (each 1 µM), 30 min at 25 °C, then varying concentrations of peptide for 1 h; beads sedimented, supernatant on SDS–PAGE with Coomassie; competitive-binding isotherm, observed binding constants (Kobs); details: both partners purified
[7] = biological target: T1, yeast PEX7 fused at the C terminus to …; test: bead-binding assay (fluorescence on beads by spinning-disk confocal microscopy); peptide or YG-domain polypeptide conjugated through a cysteine to thiol-reactive beads; PEX7–GFP or GFP alone in Assay Buffer (25 mM HEPES-NaOH pH 7.8, 150 mM NaCl, 1 mM TCEP), RT, 1 h (Fig. 3b); beads imaged directly in the binding reaction; details: both partners purified

With SQRLQSIKDHLVESRS [PTS2 peptide] the “Recruitment of PEX7–GFP to PEX5-21-coated beads” value (yeast PEX7 [1]) was “could recruit PEX7–GFP only in the presence of the PTS2 peptide”.

B1: PEX7–FLAG: PEX7 with a short SG linker and a FLAG epitope tag at the C terminus (protein, UniProt O00628 1-323, looked up)
Peroxisomal targeting signal …: MSAVCGGAARMLRTPGRHGYAAEFSPYLPGRLACATAQHYGIAGCGTLLILDPDEAGLRLFRSFDWNDGLFDVTWSENNEHVLITCSGDGSLQLWDTAKAAGPLQVYKEHAQEVYSVDWSQTRGEQLVVSGSWDQTVKLWDPTVGKSLCTFRGHESIIYSTIWSPHIPGCFASASGDQTLRIWDVKAAGVRIVIPAHQAEILSCDWCKYNENLLVTGAVDCSLRGWDLRNVRQPVFELLGHTYAIRRVKFSPFHASVLASCSYDFTVRFWNFSKPDSLLETVEHHTEFTCGLDFSLQSPTQVADCSWDETIKIYDPACLTIPA
modifications: C-terminal SG linker and FLAG tag
For B1, the “PEX7–FLAG function in protein import” value [2] was “fully functional” and the “Enrichment in the membrane fraction” value [3] was “considerably enriched in the membrane fraction in the absence of the KPWE motif”.

B2: GST-tagged wild-type yeast PEX39 (GST–PEX39) (natural protein, UniProt P47087 1-132, looked up)
chain: MAAGGELSYEELLDHILNNKPIPNIVEVPNVTLDEGLASTPSLRPRPRPWEGQLQHQSHQGSLDKPNISLDIDQESLEGMTSLTRLSECYDIQSKLQINDSDNDNDDNNNDNNKGDGNDDDNNTVTANPTAR
notes: PEX39, yeast; also called WT; PEX39-coated beads; source: E. coli BL21 Rosetta 2(DE3), purified, GST-tagged; not shown: GST, N-terminal, kept
B2: binds [4]; binds (yeast PEX7 [5]).

B3: KPWE peptide (residues 2–20 of S. cerevisiae PEX13 with an additional N-terminal cysteine) (peptide)
peptide: CSSTAVPRPKPWETSASLEE
notes: additional N-terminal cysteine for coupling to thiol-reactive agarose beads; PEX13, S. cerevisiae, residues 2–20; also called peptide comprising the KPWE motif of yeast PEX13; source: synthetic peptide (Genscript)
B3: binds (yeast PEX7 [6]); binds [7].
